Reference: patent US6942963 (MIT, dated 2005)
Non-standard residues stand in square brackets, D forms with d.

Biological target: β-amyloid peptide βAP1-42
Experiment: cell-based or functional assay

Chain of β-amyloid peptide βAP1-42 (peptide, as listed by the source): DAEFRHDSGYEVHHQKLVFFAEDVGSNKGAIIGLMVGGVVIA

B1: decoy peptide DP16 (+NH3.T.P.I.R+.T.P.A.P.A.COO-) (peptide)
peptide: H-[dT][dP][dI][dR][dT][dP][dA][dP][dA]-OH
decrease in aggregation rate of βAP1-42, light scattering at 500 nm, DP16 at 1:1 molar ratio: ~50%
